Source: patent publication US8680233B2, “Heteropeptides useful for reducing nonspecific adsorption” (Valorisation-Recherche, Limited Partnership, priority 2009, dated 2014)
pEC50, pKd: −log10 of the molar value. Numbered stars: 1 amine (or outer) side, 2 acyl side, 3 side chain; on linkers, the order of the positions; unused ones are H or OH. Square brackets hold non-standard residues; d marks the D form. Ends that are not written are not given here. Peptide text beside a SMILES is read from it. azaTyr = O=C(N(Cc1ccc(O)cc1)N[*:1])[*:2]; azaPhe = O=C(N(Cc1ccccc1)N[*:1])[*:2]; azaLeu = CC(C)CN(N[*:1])C(=O)[*:2]; azaGly = NNC(=O)O; Mpa = O=C(O)CCS

What was measured:
[1] = Secondary structure of peptide SAM by FT-IR (mid-IR amide band); assay type: physicochemical; conditions: peptide SAM on gold-coated SPR sensor
Protocol: Microscope slides (BK7, 22×22 mm) were coated with a 3 nm titanium (Ti) adhesion layer and a 50 nm gold (Au) layer (purity 99.99%, ESPI metals) using a Cressington™ 308R sputter coater. These Au-coated SPR slides were immersed for at least 16 h in a 5 mM peptide solution in absolute ethanol to form a well-ordered monolayer (Masson, J. F. et al. Talanta 2004, 64: 716). Four replicates were prepared for each 3-MPA-peptide. The SAM formed on the SPR sensors was extensively rinsed with DMF and ethanol and dried. The mid-IR spectrum of the peptide monolayers immobilized on the SPR sensors was measured in attenuated total reflectance (ATR). Mid-IR spectra were recorded using a BRUKER TENSOR® 27 equipped with a Ge-ATR module.
The 3D structure of the peptides as SAMs is observed with the amide band visible in FT-IR. Peptides adopting an α-helix configuration are showing a strong amide band at 1645 cm^−1, while peptides auto-assembling in the β-sheet configuration leads to a shifted amide at 1675 cm^−1. Every peptide structure investigated in Table 1 adopted an α-helix configuration except for 3-MPA-HHHDD-OH, as shown in FIG. 3.
(§1) Peptides adopt secondary conformation, which plays a significant role in their biological activity. For peptides in solution, the secondary conformation is measured with CD, while peptides immobilized on a surface can be analyzed with mid-IR spectroscopy of the amide bands (Duevel, R. V., Corn, R. M., 1992. Analytical Chemistry 64(4), 337-342; Sakurai, T. et al., 2006. Journal of Peptide Science 12(6), 396-402). As listed in Table II, the secondary structure of most peptides adopted an α-helical conformation, with the exception of 3-MPA-DSDSD-OH, which adopted an extended conformation. As noted above, most peptides in the form of 3-MPA-peptide-OH adopt an α-helical conformation. Generally, mid-IR and CD agreed in the determination of the structures on surfaces and in solution, with the exception of one peptide. […] No relationship between structure and nonspecific adsorption could be established.

[2] = Secondary structure of peptide in solution by CD; assay type: physicochemical
Protocol: as §1

[3] = Surface concentration of the peptide monolayer on Au by SPR; assay type: physicochemical; conditions: peptide SAM on Au SPR sensor; average of four replicates
Protocol: The surface coverage for each monolayer was measured according to the change in response of the SPR sensor in PBS for the bare Au surface relative to the peptide-coated Au surface. To measure the formation of the monolayers, each SPR sensor was mounted on a custom-made SPR instrument in the Kretschmann configuration based on a dove prism with wavelength interrogation as previously described (Bolduc et al., 2009, supra). An Ocean Optics™ USB4000 fibre optic spectrometer ranging from 550 to 850 nm was used to acquire the spectral information processed with Matlab to obtain the SPR sensorgram. A 25 μL Teflon fluidic cell positioned on top of the SPR sensors was used to inject the solutions required to functionalize with the recognition element and detect the analytes of interest. The SPR response was acquired at a frequency of 1 Hz. The s-polarized reference was acquired in PBS buffer before monitoring a 5 minute baseline in p-polarization. PBS was replaced with crude bovine serum (76 mg/mL protein) for 20 minutes and rinsed with PBS for 5 minutes to quantify the amount of non-specifically adsorbed proteins.
The formation of monolayers on Au was measured to ensure that the peptide monolayers are indeed binding to the SPR sensor. The surface concentration of the monolayer provides a measurement of the number of molecules per square cm (i.e. the density of the monolayer at the surface). The surface concentration (Γ) of peptide-like self-assembled monolayers (SAMs) was characterized with the measurement of the SPR response before the formation of the SAMs and after their formation on the Au surface of the SPR sensor. The difference of SPR wavelength (λSPR) between these two measurements increases with the increasing surface concentration of the SAMs following the equation proposed by Jung et al. (Jung, L. S. et al. Langmuir 1998, 14: 5636): Γ=ρ(−0.5/d)ln(1−(ΔλSPRm^−1(ηSAM−ηPBS)^−1)) (eq. 1)

[4] = Advancing contact angle in PBS on peptide SAMs; assay type: physicochemical; conditions: average of four replicates
[5] = molecular target: recombinant soluble His-tagged CD36 (Homo sapiens, UniProt P16671); assay: SPR screening of peptide ligands on a CD36 functionalized sensor; assay type: binding; conditions: for pKd: CD36 functionalized sensor, linear Langmuir plot
recombinant soluble His-tagged CD36, sequence (P16671 30-439 limits assumed): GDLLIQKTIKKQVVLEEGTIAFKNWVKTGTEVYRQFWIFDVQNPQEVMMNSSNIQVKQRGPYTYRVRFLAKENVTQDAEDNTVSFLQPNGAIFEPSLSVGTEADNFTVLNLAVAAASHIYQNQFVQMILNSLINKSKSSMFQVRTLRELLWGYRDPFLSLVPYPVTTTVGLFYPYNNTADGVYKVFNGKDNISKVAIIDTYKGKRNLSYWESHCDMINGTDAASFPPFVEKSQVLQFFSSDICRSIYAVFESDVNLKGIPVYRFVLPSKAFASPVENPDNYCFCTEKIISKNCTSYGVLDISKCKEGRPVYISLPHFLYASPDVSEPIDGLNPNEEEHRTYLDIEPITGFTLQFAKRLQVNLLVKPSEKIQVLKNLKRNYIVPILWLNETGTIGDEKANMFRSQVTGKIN
Protocol: The SPR sensors for screening small peptidic ligand binding to a recombinant soluble His-tagged CD36 functionalized surfaces were prepared as described above. Five ligands were investigated: EP80317, CP-2B(i), CP-3(iv), CP-2A(v) and DBG-178(27) with concentrations ranging from 30 μM to 100 nM except for EP80317. The latter was used for optimizing the system with solutions ranging from 1 mM to 100 nM. EP80317 (HAIC-2MeDTrp-DLys-Trp-D-Phe-Lys-NH2) is a positive control of known activity, CP-2B(i) (His-DTrp-AzaLeu-Trp-DPhe-Ala-NH2) is a negative control, and CP-3(iv) (Ala-DTrp-Ala-AzaPhe-DPhe-Lys-NH2), CP-2A(v) (His-DTrp-AzaGly-Trp-DPhe-Lys-NH2) and DBG-178(27) (His-DTrp-Ala-azaTyr-DPhe-Lys-NH2) are novel CD36 ligands (see PCT publication No. WO 08/154,738). Another negative control was accomplished by exposing the His-tagged hDHFR functionalized surface to the same concentration of CD36 peptidic ligand. Two different approaches were used to remove the His-tagged CD36-Cu complex from the SPR sensors: concentrated histidine solution or saturated EDTA solution.
This is the case of the CD36-ligand system investigated herein, where the ligands are small peptides of about 800 to 1000 g/mol. Indeed, according to the aforementioned principle, the binding of the small peptides to the CD36 receptor should be close to the limit of detection, thus providing unreliable affinity measurements. […] This could be a consequence of a large conformational change of the CD36 receptor upon binding of specific ligands, thus providing the amplification sufficient for SPR signal detection.
(§2) The SPR setup was used for investigating the structure-activity relationships of various CD36 peptidic ligands. […] The measured KD's were compared to the EC50 values obtained in the activated src-kinase assay following CD36 receptor activation by the tested peptides. […] For the src-kinase cellular assay, the response sensitivity (EC50) for the tested peptides (in decreasing order) was as follows: EP80317>CP-2A(v)>CP-3(iv)>DBG-178(27)>CP-2B(i). With SPR, the binding affinity to CD36, in decreasing order, was: DBG-178(27)>CP-2A(v)>EP80317>CP-3(iv)>CP-2B(i). […] For CD36-peptidic ligands, a correlation appears between the affinity binding of the small peptides for CD36 as determined by SPR and their efficiency to produce a cellular response in the src kinase assay. Thus, SPR appears as a selective and sensitive method to screen for CD36 ligands.

CD36 receptor = CD36 receptor (Homo sapiens, UniProt P16671); assay: SRC-kinase cellular assay following CD36 receptor activation; assay type: cell-based; conditions: activation of src-kinases after CD36 receptor activation
CD36 receptor, sequence (P16671 whole entry): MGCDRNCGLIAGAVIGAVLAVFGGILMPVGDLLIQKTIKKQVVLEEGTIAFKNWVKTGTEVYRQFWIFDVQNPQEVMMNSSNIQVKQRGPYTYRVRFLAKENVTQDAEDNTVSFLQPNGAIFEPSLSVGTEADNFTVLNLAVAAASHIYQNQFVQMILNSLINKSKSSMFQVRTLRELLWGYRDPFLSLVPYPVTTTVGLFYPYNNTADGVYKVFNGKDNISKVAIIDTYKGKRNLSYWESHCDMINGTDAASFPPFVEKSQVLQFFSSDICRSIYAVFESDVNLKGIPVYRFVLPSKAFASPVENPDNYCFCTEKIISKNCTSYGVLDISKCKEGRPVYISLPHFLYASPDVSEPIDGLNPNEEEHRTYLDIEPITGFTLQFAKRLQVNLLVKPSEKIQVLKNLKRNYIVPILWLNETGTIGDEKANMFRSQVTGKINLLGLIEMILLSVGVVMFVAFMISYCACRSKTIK
Source text: as §2

Row | Molecule | Secondary Structure FT-IR (SAM) [1] | Secondary Structure CD (solution) [2] | Surface density ΔΓSAM [3] | Contact angle in PBS θC_PBS [4] [°] | other results
1 | 3-MPA-SHDSHD-OH ([Mpa]SHDSHD-OH; SMILES O=C(O)C[C@H](NC(=O)[C@H](Cc1c[nH]cn1)NC(=O)[C@H](CO)NC(=O)[C@H](CC(=O)O)NC(=O)[C@H](Cc1c[nH]cn1)NC(=O)[C@H](CO)NC(=O)CCS)C(=O)O) | α-helical and α | extended |  |  | 
2 | 3-MPA-SSSHH ([Mpa]SSSHH) |  |  | 0.301 10^15 molecule/cm^2 | 40.0 | 
3 | 3-MPA-LLLSS ([Mpa]LLLSS) |  |  | 0.255 10^15 molecule/cm^2 | 32.6 | 
4 | NCCCC[C@H](NC(=O)[C@@H](Cc1ccccc1)NC(=O)[C@H](Cc1c[nH]c2ccccc12)NC(=O)NNC(=O)[C@@H](Cc1c[nH]c2ccccc12)NC(=O)[C@@H](N)Cc1cnc[nH]1)C(N)=O [CP-2A(v), His-DTrp-AzaGly-Trp-DPhe-Lys-NH2] (H-H[dW][azaGly]W[dF]K-NH2) |  |  |  |  | pKd [5]: 7.36; pEC50 (CD36 receptor): 7.59
5 | 3-MPA-HHHSS ([Mpa]HHHSS) |  |  | 0.125 10^15 molecule/cm^2 | 39.9 | 
6 | 3-MPA-LLLHH ([Mpa]LLLHH) |  |  | 0.296 10^15 molecule/cm^2 | 41.4 | 
7 | C[C@H](N)C(=O)N[C@H](Cc1c[nH]c2ccccc12)C(=O)N[C@@H](C)C(=O)NN(Cc1ccccc1)C(=O)N[C@H](Cc1ccccc1)C(=O)N[C@@H](CCCCN)C(N)=O [CP-3(iv), Ala-DTrp-Ala-AzaPhe-DPhe-Lys-NH2] (H-A[dW]A[azaPhe][dF]K-NH2) |  |  |  |  | pKd [5]: 6.42; pEC50 (CD36 receptor): 7.36
8 | C[C@H](NC(=O)[C@@H](Cc1c[nH]c2ccccc12)NC(=O)[C@@H](N)Cc1cnc[nH]1)C(=O)NN(Cc1ccc(O)cc1)C(=O)N[C@H](Cc1ccccc1)C(=O)N[C@@H](CCCCN)C(N)=O [DBG-178(27), His-DTrp-Ala-azaTyr-DPhe-Lys-NH2] (H-H[dW]A[azaTyr][dF]K-NH2) |  |  |  |  | pKd [5]: 7.66; pEC50 (CD36 receptor): 7.20
9 | 3-MPA-DSDSD-OH ([Mpa]DSDSD-OH; SMILES O=C(O)C[C@H](NC(=O)[C@H](CO)NC(=O)[C@H](CC(=O)O)NC(=O)[C@H](CO)NC(=O)[C@H](CC(=O)O)NC(=O)CCS)C(=O)O) | extended | extended |  |  | 
10 | 3-MPA-GGGGD-OH ([Mpa]GGGGD-OH; SMILES O=C(O)C[C@H](NC(=O)CNC(=O)CNC(=O)CNC(=O)CNC(=O)CCS)C(=O)O) | α | α |  |  | 
11 | CC(C)CN(NC(=O)[C@@H](Cc1c[nH]c2ccccc12)NC(=O)[C@@H](N)Cc1cnc[nH]1)C(=O)N[C@@H](Cc1c[nH]c2ccccc12)C(=O)N[C@H](Cc1ccccc1)C(=O)N[C@@H](C)C(N)=O [CP-2B(i), His-DTrp-AzaLeu-Trp-DPhe-Ala-NH2, reference compound] (H-H[dW][azaLeu]W[dF]A-NH2) |  |  |  |  | pKd [5]: 5.85; pEC50 (CD36 receptor): < 5.00
12 | 3-MPA-GGHHDD-OH ([Mpa]GGHHDD-OH; SMILES O=C(O)C[C@H](NC(=O)[C@H](CC(=O)O)NC(=O)[C@H](Cc1c[nH]cn1)NC(=O)[C@H](Cc1c[nH]cn1)NC(=O)CNC(=O)CNC(=O)CCS)C(=O)O) | α | α |  |  | 
13 | 3-MPA-LLHHDD-OH ([Mpa]LLHHDD-OH; SMILES CC(C)C[C@H](NC(=O)CCS)C(=O)N[C@@H](CC(C)C)C(=O)N[C@@H](Cc1c[nH]cn1)C(=O)N[C@@H](Cc1c[nH]cn1)C(=O)N[C@@H](CC(=O)O)C(=O)N[C@@H](CC(=O)O)C(=O)O) | α | α |  |  | 
14 | 3-MPA-SSSDD ([Mpa]SSSDD) |  |  | 0.441 10^15 molecule/cm^2 | 38.8 | 
15 | 3-MPA-DHDHD-OH ([Mpa]DHDHD-OH; SMILES O=C(O)C[C@H](NC(=O)[C@H](Cc1c[nH]cn1)NC(=O)[C@H](CC(=O)O)NC(=O)[C@H](Cc1c[nH]cn1)NC(=O)[C@H](CC(=O)O)NC(=O)CCS)C(=O)O) | α | α |  |  | 
16 | 3-MPA-DDDSS ([Mpa]DDDSS) |  |  | 0.311 10^15 molecule/cm^2 | 51.2 | 
17 | 3-MPA-LLLDD ([Mpa]LLLDD) |  |  | 0.352 10^15 molecule/cm^2 | 52.3 | 
18 | 3-MPA-LHDLHD-OH ([Mpa]LHDLHD-OH; SMILES CC(C)C[C@H](NC(=O)CCS)C(=O)N[C@@H](Cc1c[nH]cn1)C(=O)N[C@@H](CC(=O)O)C(=O)N[C@@H](CC(C)C)C(=O)N[C@@H](Cc1c[nH]cn1)C(=O)N[C@@H](CC(=O)O)C(=O)O) | α | α |  |  | 
19 | 3-MPA-DDDHH ([Mpa]DDDHH) |  |  | 0.279 10^15 molecule/cm^2 | 46.4 | 
20 | CC(C)CN(NC(=O)[C@@H](Cc1c[nH]c2ccccc12)NC(=O)[C@@H](N)Cc1c[nH]cn1)C(=O)N[C@@H](Cc1c[nH]c2ccccc12)C(=O)N[C@H](Cc1ccccc1)C(=O)N[C@@H](C)C(N)=O [CP-2B(i), His-DTrp-AzaLeu-Trp-DPhe-Ala-NH2, reference compound] (H-H[dW][azaLeu]W[dF]A-NH2) |  |  |  |  | Binding affinity to CD36 (in words) ([5]; negative control): low binding affinity
